Results taken from publication PMC3734082.

Molecular target: clathrin triskelia (clathrin heavy chain, CHC) purified from rat liver (UniProt P11442)
Test: GST pull-down, CHC
Settings: sites S558

| Substance | binding against the reference (reference: wild type treated with Aurora A) | binding against the reference (reference: wild-type CID treated with Aurora A) |
| --- | --- | --- |
| TACC3 (from UniProt Q9Y6A5) S558A treated with Aurora A | weaker | – |
| TACC3 clathrin interaction domain (CID), 522-577 (from UniProt Q9Y6A5) S558A CID treated with Aurora A | – | weaker |
